Measured values from patent US20160024196A1 (Amgen, published 2016).

Tests used:
murine SFRP5 [1] = biological target: T1, murine SFRP5 (mouse, UniProt Q9WU66 22-314, limits assumed); test: kinetics; method not stated (Table 12, repeats Table 8)
T1 construct: also called mouse SFRP5; muSFRP5
T1 sequence: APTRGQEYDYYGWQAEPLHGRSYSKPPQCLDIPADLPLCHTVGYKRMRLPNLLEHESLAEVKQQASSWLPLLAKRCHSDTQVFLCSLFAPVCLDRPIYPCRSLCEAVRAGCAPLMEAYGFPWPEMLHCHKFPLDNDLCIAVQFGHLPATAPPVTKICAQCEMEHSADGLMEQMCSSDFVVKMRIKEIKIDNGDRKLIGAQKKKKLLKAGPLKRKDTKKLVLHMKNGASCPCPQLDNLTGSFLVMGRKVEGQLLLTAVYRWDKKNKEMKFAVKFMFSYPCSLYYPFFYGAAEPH

murine SFRP5 [2] = biological target: T1, murine SFRP5; test: kinetics; method and SFRP5 construct not stated (Table 8)

B1: anti-SFRP5 monoclonal antibody subclone 24C18.3 (antibody, IgG2b, V domains shown)
VH: QVQLTQSGAELVRPGASVKLSCKASGYTFTDYYINWVKQRPGQGLEWIARIYPGSGNTYYNEKFKGKATLTAEKSSSTAYMQLSSLTSEDSAVYFCAAYSASAMDYWGQGTSVTVSS
VL: NVVLTQSPASLAVSLGQRATISCRASESVDSYGKSFMYWYQQKPGQPPKLLIYLANNLESGVPARFSGSGSRTDFTLTIDPVEADDAASYYCQQNNEDPWTFGGGTKLEIK
notes: also called mu24C18.3
Kd (murine SFRP5 [1]): 658 pM | koff (murine SFRP5 [1]): 7.36e-05 s⁻¹ | kon (murine SFRP5 [1]): 112000 M⁻¹ s⁻¹ | Kd (murine SFRP5 [2]): 658 pM | koff (murine SFRP5 [2]): 7.36e-05 s⁻¹ | kon (murine SFRP5 [2]): 112000 M⁻¹ s⁻¹
